The DeepSol protein solubility set

Test: soluble on expression in E. coli; label from the status in PepcDB or PDB records

Soluble on expression in E. coli, not soluble:
MGSDKIHHHHHHMNSSQKRVLHVLSGMNRGGAETMVMNLYRKMDKSKVQFDFLTYRNDPCAYDEEILSLGGRLFYVPSIGQSNPLTFVRNVRNAIKENGPFSAVHAHTDFQTGFIALAARLAGVPVRVCHSHNTSWKTGFNWKDRLQLLVFRRLILANATALCACGEDAGRFLFGQSNMERERVHLLPNGIDLELFAPNGQAADEEKAARGIAADRLIIGHVARFHEVKNHAFLLKLAAHLKERGIRFQLVLAGDGPLCGEIEEEARQQNLLSDVLFLGTEERIHELMRTFDVFVMPSLYEGLPVVLVEAQASGLPCIISDSITEKVDAGLGLVTRLSLSEPISVWAETIARAAAAGRPKREFIKETLAQLGYDAQQNVGALLNVYNISTEKDHNR
MGSDKIHHHHHHMNSSQVLDVKRVLAVLEEQVFQSTGRYLTEVEKVLIKGVWDSKDYKEMASDSGYNAYYLQQKVAPPLWSMLSVIIGDGVKVTKISLKSILLKLAKSDYRKEEASRLDNDSFVGNIRIHGELPKIKSFYGRKDEINYFKKQITLFKERCIVFTGVGGIGKTLLASRLVEEITFDSLSSIYECIIWKTINHSLSIDELVIDLNKIFQVDIEASENSFIDSISLLSKQLHLHRCLLVIDGFEKLLLADDFGKRLQYEKFLLKLTEGKHESCIIITSQLPLKEFASVTTKLPIRSFKLEGLDVNAGMQILQEKGLTGQECKRLIENYSGNPSSLEALADRINRFFEGSVKTFFRYQTTMIDPQLETMLHQQFGQIGLLSNLQRQIMIYLAEEMSENSTPIQFSKLIDNLKERVDFKLSVFELITAIEVLEQRSLIEIAGKSNKREASYSLQVSIKKYILVDPLGLVHKIPDTIQTREVTLWATA
MGSDKIHHHHHHMNTIEDNLNQRISARIRIERESRGWSLNDLAERAGASRAMIHKIERGESSPTASMLGRLSGAFGISMSTLIARAEMQEGKLLRFASQPVWRDPQSHYLRRHVSPRSDLPIDLVQIELPPGSDVPMPAASYALARQLIWLQQGELVFVEGNTRHEMQAGDCLELGPPNDCRFINESAETCVYLVVRLNQSPSGS
MGSDKIHHHHHHMNTLTLEYIKSILPPRPDNSHKMTFGHVLNIAGSLHYRGAAYLSSLSALRVGAGYVTLASSPSVCDSVSALTPNIVTFALRTLSPLSVHSLQRTANLHLKDAQIVDVQTLSPQAVLQLRDKLTQASAISIGSGLSIGQSTDQCIDITAINTELTVDVDVTLCTEMSAEISTDLNSDLNSDLNSDLRSELPICNVIKDNQPHSNELIPPQGNHGFFYALLNEIQTCTKPVIFDADALNFISHLLNPPVPFGTTTVTLPNKSIITPHPKELARLLNMDVATLQTQRMHFARLAAKQLNTIVVLKGKNTVITDGNDVFINPTGNSALAKAGTGDVLTGMISGFCAQGVSPINAACLGVYLHGLAGNIAAEDLSQYGMLASDLLSYIPKAILKVLAI
MGSDKIHHHHHHMNTPAPRKRREMKIKTATVTGVRQISPDLIRFSFDCPEIVGADLGFTDHYIKILFVPAGADYSWPFDMAEIAETQPRELQPVRRTYTFRTVDTVAGTFDIDFVAHGTDGLAGPWAQQAQVGDVIAFGGPGGAWKPETTYEHYVLAGDEAAAPAIFAALEHLPAGTTAKAFIEISSNEARFNAPASDNIEVVWVPRDGATHGTLLIDALRQDGYPTKKTSWFIHGVAEMVKETRKFLFVEGNVDKADASISGYWRLGMTEDQWQASKREFNEQNEAEELALSKA
MGSDKIHHHHHHMNTPFMLHQGTSPVILAFPHTGTEVPPAIWDRLDDNGRIFADTDWHIHTLYAGLLENATTVRATFHRYVIDANRDPAGVSLYPGQNTTGLVPETDFDGKPIWKTGAEPNEADIAHRLETFHAPYHAALAAEIERVKSIHGIAILYDCHSIRSHIPFLFEGKLPDFNIGTDMGKTCDPAIEKIAVEVTAAAQGYDSILNGRFKGGWTTRHYGKPQTGVHAIQMELAQSTHLQNEHPPFAYDTGKAERLRTHLKTILTRMEKFALDTK
MGSDKIHHHHHHMNTRSDVSKLIAQRKPRHALPRALYSNLAVYQQDLQQLWHKDWIFAGHTFELEKSGQYLSLQIGDYPVAVVRGADGQVRAFHNSCRHRGSKVCPEAKGKVAKLVCPYHKWTFELDGRLLFAGNMGDDFDKSQYNLKPVHCEIVNTYIYVCVAEAAPDFSAFREAVTPFLMPHNLEDCKVAFESNLIEKGNWKLVFENNRECYHCDGTHPELMNSFVENLSVAGVGGSDDPQLTAHWDRCEAAGLPSRLVMDNDGRFRITRIPLSSGAVSYTMDGKPAVAVRLDASGEADIGALLYFNYPSTWNHFLGDHALSFRVLPLGPNETLVTTKWIVKKTAVEGLDYDLDRLTKVWLATNDQDRTLVEGAQVGVNSPAYEPGPFSSKAENGVCQFDDWYCEIMLDRLGDDRAQASIKLKSVG
MGSDKIHHHHHHMNWLLNISTHGSDLEIAGPEWSEAVSLLRRTGMDGFELYPAGAYDCTAIPKEIVGGVHLRFFVMLRQIWQNDREGLLRMFGSEQTVRHYYSGVNREAVISCYRSQLELAARFNVPYVVFHPVHYELEYVFNWQPPWGWRETVDLSTEIINEVVRDTPYDGWILFENLWWPGNFRLDSTDEIDRLLSKVRWPKCGIVLDTAHILNKNQELRTEEEAIAFLLRQVERLGDYRQLIKAVHLSKSLSGEAAKAGFANADPFCGAHDFWQRFSIALRHVRDLDRHEPFSHSMLGELFDLIEPDNVVFELAFSSLDEWIGKIEQQQRALQRFFPECRIKENLY
MGSDKIHHHHHHMPALCSTVQTLEKLAKDDVSSLALLGRSVMHDNALTSRILRVANSAIYHKGSTQISTVSRAAIVLGFDAVRNICITAQLLSSLLESKNLAPSVYQRLIKLMAKAFQAAMLTRMMLSDYDDDIQEEAFIACLLFHIGESAFWSIGGEFTETLDSQLTECETSADERSLIRETIGTSFSQLTQSIARHWGLGELLIQAVNYPDDPRPEIRSIFLADKLCDTLSVATPDKNDLEKYINQAANFTGLDETEFTLKMQRCTKATHKLAEAYGAKVLIDYLPDPQRIDKLEPYLPEAELPIFEANLNVQLVKLRELTAFAINKADFNQIMQTVLEGILEGVGVDRCGVLLLSPSRKQLQPRIMLGRDAEEMKRQFIIELGDRKGLFPMAMEHKESLWVDSPCAKKWQEQCRELKVQLPESGFLVAPLLVDNKVIGFYYADRGPSERCFAEVDFQAFIHFSQLANVCFTVSLK
MGSDKIHHHHHHMPDTEEIARDSVVPPDVRRQAVNWLVELQSDIVTDETRDQWQKWRMSHPDHEYAWQQVEVFSRKLRGLPSPLAHAALTPPHSSSRRRAIKALTVLIFLGGGTWVAGEGRLWCWWPEDYCTGIGEHRAVTLSDGTGIELNSGSAITVNFDDTRRLIRLMNGEIMVTTAPDPRLANGIGAARPLLIETAQGILRAIGTRFTVRQFDVSQQGKSSVAVFEGAVEIQPITGRLRQLEVGQQAAFTRDGVIAVGMACEADTAWRQGMIVARDMPLIDFLAELGRHRSGWLSCDPAVAQLKVTGTYPLADIGKILAILQKTLPIDVQLFTRYWIRVGARQEDT
MGSDKIHHHHHHMPEFNYQKAFPLKKDPTPYKLISTDYVSTIEVDGRKILKIDPKALELVAEKALADVSFYLRSSHLEKLAKIIKDPEATDNDRFVAYTLLQNASTAGEGKLPSCQDTGTAIVMGKKGENVWTGANDEEALSKGIYNTYQEKNLRYSQVVPITMFEEKNSGTNLPAQIDIYAEQGNEYKFLFMAKGGGSANKTYLYQQTKALLNENSLAEFVKNKIKDLGTSACPPYHLALVIGGTSAEANLKAVKLASAGYYDELPTEGNMGGQAFRDLEWEEKVQLICQESLIGAQFGGKYFTHDVKVIRLPRHAASCPVGIGVSCSADRNIKAKITEEGIFIEALETNPEKFLPAQAPHLEKAVEVDLNQPMADVLKLLSQYPIKTRLKLKGTLIVARDIAHAKIKELLDAGKPMPEYFKNHPVYYAGPAKTPEGMPSGSFGPTTAGRMDSYVNLFQSQGGSMIMLAKGNRSKAVTDACKEFGGFYLGSIGGPAAILAKENIKSVEVVDFEELGMEAVRKIEVVDFPAFIICDDKGNDFFANL
MGSDKIHHHHHHMPGNSSGVAAVERAVSMLEAFTDVDYSLTLGELARRTELDKSTVLRIARSLAKSSMLVRNDDASWRLGPKLVRLGGLYQSTFKSSAIVEPLLAQISDESGESAAVYVKEGVVRVCLHRHDSTQSIRHSARVGDAMPLDRGAPGRVILAFTGSSGKLYDDIRAKGFHVTIGERDPQVASVAVPVYRDGQALFGSLALTGPPSRFNEEAVSKNLEILRVAARKLSAALGGDPG
MGSDKIHHHHHHMPGQLKVTLLDSPNPLSKANPIHLKPLVNHCMDCRVSGLCLPTGLPVDENSCLGALIGPRMRIRKGAALFNANDPLTMLYALRCGSFKTSLNTAEGQGVVINFWMPGDVIGLDAIATEHHVCDAIALEDSEVCPVPYRRLQTLAREFPDLQQSLNRLMSREIVREHGRVLMLCNLTAEQRLASFLVGLSRRFVSRGYSAHGFMLRMSREDMASYLGLRLETVCRSVARLRALGIVDLHGRLVEILDMPALMALEQGGGECEAKGP
MGSDKIHHHHHHMPINKLALVRYKTIDSCLQNRFRKWTLEDLMEACSDALYEYEGMTKGISRRTIQLDIQNMRSEKLGYNAPIIVTDKKFYSYEDKGYSITNSPLTQQDLGTLVEVLDVLKQFKGFGYFQELTGMVTRLEDKLYTHQHKGKSYIDFEKNELLKGLQHIDLLHKAIINKKTVDILYQSFKAASAQNITFYPYLLKEYRNRWFILGCNKRTKATMILALDRIEQFKELRSEKYMKPDFDVATYFDDVIGVSKMPNQEPQLIVCKISKEHAPYIITKPIHASQQIIRGEKDGTVFSIHVIWNFELERELLGFGEQLQVLAPRRIQGKLRARMKRAVAAYESEKKE
MGSDKIHHHHHHMPINSFENYPMTWKPKLDNRKPPIYKTLAMLLEEDIKRGNLNPGDKLPPQRELADFLDLNLSTITRAFKLCEEKGLICAKVGKGTFISSDVNVSNTLLYQTESKDIIELGTVHPPYEQNTYIIDFIKNVLKQPEMDRFLQYMSPSGTYMQKKSIAKWIERNNVYTSEENILLSTGGQNAICATLLGLFKAGDRIATDSLSFSGIKSIAKMIGIQLVPIPQENNEISIEYLESYCKNENIKGIYLIPDYHNPTTHTMSDLSRKKIAKIAKQYNIIIIEDAINSIFRDGIQTPIFSLASDNTIYIFSTSKFLCAGLRVAFVVAPKRYIENLENALYNMNLMVSPFTAEIVHRLLYSPIIDKIIEEKRDAIIERNEVADKVLSDYNLIGDKNCSFRWLLLPDELDGKSFEISAKNLGVQVYCAERFSVGNSTVPKAVRICVTAPKDVEELEKGLNIIKSLLKS
MGSDKIHHHHHHMPIVTIGIDLAKNIFAVHGVDEAGKAMLIKPRVPRDQLATLIAQLPACLIGMEACSGAHHWARLFQQHGHTVKLMAPNLVAPYRMSGKRGKNDAADAAAICEAVARPSMRFVPLKDEHQQATLCLHRTRQGFVEERTATYNRLRGLLPEFGVVLPQSPEKLRRYVTEHLDALPGWAKRSIGDLLEHAGHIEDRLLEYDRAIAEIAREDARSKRLMQLRGVGPTTASALLASIGAGRDFRNGRQVAAWIGLTPGQYSSGGKARLGSITKAGDAYLRGLLVNGARAVIANLGEKQDRFSRWVRTLIERRGYWRAAVAIAAKNARLAWASLKYGEDFKLEPAAD
MGSDKIHHHHHHMPKRIVKLEAGYNCRDLGGYVSQDGRTVKWGRLYRSGSLSHLTKADQAELARRKIVVDCDLRSRHEQDNFPDKLWPGSKLVDAHFYSESGDEEEEAEAAWEKYSSKLPKLSYLAMVYQQNLVVPRTGLVMREIFKEMLDLEDDEALLYHCSMGKDRTGMVSVIVLMALGLEDREILRDYLLSREYSRDWDEADENDRLGKQIAKMNQTQVSQTAFYGITETIRQMWGGFDRYFASLGFDQGDLDRLRDKFLE
